We go through three molecules from publication doi:10.1101/2023.01.27.525918 (bioRxiv, 2023).

Series [1] concerns the target ZUP1;RPA complex WT (RPA70/RPA32/RPA14) (Homo sapiens;Homo sapiens, UniProt Q96AP4;P27694;P15927;P35244 1-578;1-616;1-270;1-121, |). Put plainly: EMSA.
For series [2], the target named is T1, Human RPA complex (RPA70, RPA32, RPA14), recombinant full length (human, UniProt P27694;P15927;P35244). Briefly: pull-down.
The target in series [3] is RPA70 as the subunit of the purified recombinant RPA complex (human, UniProt P27694 1-616). Briefly: cross-linking.
Sequence of UniProt P27694 (P27694 whole entry, one chain of several): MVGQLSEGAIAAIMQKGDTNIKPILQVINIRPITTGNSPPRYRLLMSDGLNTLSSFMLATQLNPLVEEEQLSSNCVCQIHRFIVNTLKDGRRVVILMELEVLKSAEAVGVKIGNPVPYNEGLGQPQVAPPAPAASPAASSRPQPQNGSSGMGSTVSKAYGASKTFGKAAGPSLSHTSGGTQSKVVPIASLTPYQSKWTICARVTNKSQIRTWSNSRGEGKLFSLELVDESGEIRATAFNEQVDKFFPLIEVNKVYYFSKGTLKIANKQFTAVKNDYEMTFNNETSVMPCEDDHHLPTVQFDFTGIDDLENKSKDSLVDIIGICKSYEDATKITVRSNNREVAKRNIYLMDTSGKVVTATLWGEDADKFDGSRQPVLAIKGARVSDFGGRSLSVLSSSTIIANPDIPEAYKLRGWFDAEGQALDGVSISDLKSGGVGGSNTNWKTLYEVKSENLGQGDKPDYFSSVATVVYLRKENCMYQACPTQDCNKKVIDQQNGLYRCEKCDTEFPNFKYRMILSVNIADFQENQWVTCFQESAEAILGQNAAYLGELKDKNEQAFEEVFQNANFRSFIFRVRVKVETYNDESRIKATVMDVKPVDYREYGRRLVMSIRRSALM
For series [4], the target named is T1, Human RPA complex (RPA70, RPA32, …). Put plainly: SEC.

T1 sequence (P27694 whole entry, chain 1 of 3): as the sequence (P27694 whole entry, one chain of several) above
T1 sequence (P15927 whole entry, chain 2 of 3): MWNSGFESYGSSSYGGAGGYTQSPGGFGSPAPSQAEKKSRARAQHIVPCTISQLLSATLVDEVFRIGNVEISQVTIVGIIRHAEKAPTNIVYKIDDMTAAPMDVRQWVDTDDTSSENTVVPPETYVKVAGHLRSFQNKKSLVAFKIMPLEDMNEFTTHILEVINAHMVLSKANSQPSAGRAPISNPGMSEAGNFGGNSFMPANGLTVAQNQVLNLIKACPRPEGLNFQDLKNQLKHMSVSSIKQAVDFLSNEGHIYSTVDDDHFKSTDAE
T1 sequence (P35244 whole entry, chain 3 of 3): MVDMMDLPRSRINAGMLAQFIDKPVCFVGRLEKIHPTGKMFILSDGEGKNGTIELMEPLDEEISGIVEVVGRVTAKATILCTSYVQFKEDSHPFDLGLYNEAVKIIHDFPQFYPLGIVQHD
Sequence of ZUP1;RPA complex WT (RPA70/RPA32/RPA14) (P27694 whole entry, chain 2 of 3): as the sequence (P27694 whole entry, one chain of several) above
Sequence of ZUP1;RPA complex WT (RPA70/RPA32/RPA14) (P15927 whole entry, chain 3 of 3): as the sequence (P15927 whole entry, chain 2 of 3) above
Sequence of ZUP1;RPA complex WT (RPA70/RPA32/RPA14) (P35244 whole entry, chain 4 of 3): as the sequence (P35244 whole entry, chain 3 of 3) above

B1: Gap-26 (mixed)
DNA 1: CTATGGCGAGGCGATTATCAACCCATTTAGTCGTAATAGTGAAGAGTCACGACAACATCG
DNA 2: TAATCGCCTCGCCATAG
DNA 3: CGATGTTGTCGTGACTC
In the case of B1, in series [1], the binding result was “binds”.

B2: GST-ZUP1 α-2/3-C78 (aa 272-578) (domain or fragment)
chain: SGGYKQQQLRNMEIEVNRGRMPPSEFHRRKADMMESLALGFDDGKTKTSGIIEALHRYYQNAATDVRRVWLSSVVDHFHSSLGDKGWGCGYRNFQMLLSSLLQNDAYNDCLKGMLIPCIPKIQSMIEDAWKEGFDPQGASQLNNRLQGTKAWIGACEVYILLTSLRVKCHIVDFHKSTGPLGTHPRLFEWILNYYSSEGEGSPKVVCTSKPPIYLQHQGHSRTVIGIEEKKNRTLCLLILDPGCPSREMQKLLKQDIEASSLKQLRKSMGNLKHKQYQILAVEGALSLEEKLARRQASQVFTAEKIP
For the molecule B2, the binding result in series [2] is on record as “binds”.

B3: ZUP1 C360A (catalytically inactive mutant of full length ZUP1) (enzyme)
chain: MLSCNICGETVTSEPDMKAHLIVHMESEIICPFCKLSGVNYDEMCFHIETAHFEQNTLERNFERINTVQYGTSDNKKDNTLQCGMEVNSSILSGCASNHPKNSAQNLTKDSTLKHEGFYSENLTESRKFLKSREKQSSLTEIKGSVYETTYSPPECPFCGKIEEHSEDMETHVKTKHANLLDIPLEDCDQPLYDCPMCGLICTNYHILQEHVDLHLEENSFQQGMDRVQCSGDLQLAHQLQQEEDRKRRSEESRQEIEEFQKLQRQYGLDNSGGYKQQQLRNMEIEVNRGRMPPSEFHRRKADMMESLALGFDDGKTKTSGIIEALHRYYQNAATDVRRVWLSSVVDHFHSSLGDKGWGAGYRNFQMLLSSLLQNDAYNDCLKGMLIPCIPKIQSMIEDAWKEGFDPQGASQLNNRLQGTKAWIGACEVYILLTSLRVKCHIVDFHKSTGPLGTHPRLFEWILNYYSSEGEGSPKVVCTSKPPIYLQHQGHSRTVIGIEEKKNRTLCLLILDPGCPSREMQKLLKQDIEASSLKQLRKSMGNLKHKQYQILAVEGALSLEEKLARRQASQVFTAEKIP
For B3, the binding result in series [3] and in series [4] was “binds” throughout.
